Protein stability index data for 94 variants are collected here from the supplement of paper PMC10567573.

B1: TBC1D10A (parent)
chain: WCLVQICEKYLPGYYSEKLEAIQL
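Also: lentivirally expressed fusions sorted by FACS into six bins by GFP to DsRed ratio, PSI derived from sequencing read proportions per bin multiplied by bin number.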

The variants in the data set derive from B1. The data set is described as follows: protein stability index of a GFP-peptide fusion (GPS, HEK-293T) (PSI 1-6); higher = more stable. The following applies: c terminus: a fixed tail appended.
WCLVQICEKYLPGYYSEKLEAKQL [I22K]: the protein stability index amounted to 2.86. Consider WCLVQICEKYLPGYYSEKLEAEQL [I22E], for which the protein stability index was determined as 3.23.

Take WCLVQICEKYLPGYYSEKLEASQL [I22S]: the protein stability index was found to be 1.72. With WCLVQICEKYLPGYYSEKLEAMQL [I22M], the protein stability index turned out to be 2.21.

Turning to WCLVQICEKYLPGYYSEKLEAVQL [I22V], the protein stability index was 3.09. Regarding WCLVQICEKYLPGYYSEKLEADQL [I22D], the protein stability index turned out to be 3.23. Regarding WCLVQICEKYLPGYYSEKLEAQQL [I22Q], the protein stability index worked out at 2.4. The result for WCLVQICEKYLPGYYSEKLEANQL [I22N] reads 1.3.

For the variant WCLVQICEKYLPGYYSEKLEALQL [I22L], the protein stability index came to 4.01.

Take WCLVQICEKYLPGYYSEKLEAGQL [I22G]: the protein stability index amounted to 2.35.

In the case of WCLVQICEKYLPGYYSEKLEATQL [I22T], the protein stability index stood at 2.67. Consider WCLVQICEKYLPGYYSEKLEAIAL [Q23A], for which the protein stability index was determined as 4.11. For the variant WCLVQICEKYLPGYYSEKLEAIFL [Q23F], the protein stability index turned out to be 3.75.

In the case of WCLVQICEKYLPGYYSEKLEAIKL [Q23K], the protein stability index was found to be 2.75. Regarding WCLVQICEKYLPGYYSEKLEAIEL [Q23E], the protein stability index stood at 2.44.

WCLVQICEKYLPGYYSEKLEAIIL [Q23I]: the protein stability index was 3.3.

As for WCLVQICEKYLPGYYSEKLEAIHL [Q23H], the protein stability index was 2.13. For the variant WCLVQICEKYLPIYYSEKLEAIQL [G13I], the protein stability index is 1.54.

WCLVQICEKYLPEYYSEKLEAIQL [G13E]: the protein stability index amounted to 3.01. As for WCLVQICEKYLPSYYSEKLEAIQL [G13S], the protein stability index turned out to be 2.02.

As to WCLVQICEKYLPAYYSEKLEAIQL [G13A], the protein stability index amounted to 3.16.

Consider WCLVQICEKYLPMYYSEKLEAIQL [G13M], for which the protein stability index was determined as 3.53. As to WCLVQICEKYLPWYYSEKLEAIQL [G13W], the protein stability index is 2.7. Turning to WCLVQICEKYLPYYYSEKLEAIQL [G13Y], the protein stability index worked out at 5.24. The result for WCLVQICEKYLPCYYSEKLEAIQL [G13C] reads 1.5; that for WCLVQICEKYLPKYYSEKLEAIQL [G13K], 2.91; that for WCLVQICEKYLPGYYSEKVEAIQL [L19V], 2.92.

Turning to WCLVQICEKYLPGYYSEKCEAIQL [L19C], the protein stability index amounted to 4.85. The figure for WCLVQICEKYLPGYYSEKNEAIQL [L19N] is 3.63.

As for WCLVQICEKYLPGYYSEKEEAIQL [L19E], the protein stability index is 4.16.

With WCLVQICEKYLPGYYSEKPEAIQL [L19P], the protein stability index was 1.99. Take WCLVQICEKYLPGYYSEKQEAIQL [L19Q]: the protein stability index worked out at 3.88.

As to WCLVQICEKYLPGYYSIKLEAIQL [E17I], the protein stability index turned out to be 2.74. As for WCLVQICEKYLPGYYSQKLEAIQL [E17Q], the protein stability index worked out at 1.94. Consider WCLVQICEKYLPGYYSMKLEAIQL [E17M], for which the protein stability index was found to be 3.65.

With WCLVQICEKYLPGYYSHKLEAIQL [E17H], the protein stability index stood at 1.77. The result for WCLVQICEKYLPGYYSVKLEAIQL [E17V] reads 3.99; that for WCLVQICEKYLPGYYSCKLEAIQL [E17C], 2.56. Regarding WCLVQICEKYLPGYYSLKLEAIQL [E17L], the protein stability index is 3.48.

WCLVQICEKYLPGYYSKKLEAIQL [E17K]: the protein stability index amounted to 1.66. The figure for WCLVQICEKYLPGYYSPKLEAIQL [E17P] is 2.03; for WCTVQICEKYLPGYYSEKLEAIQL [L3T] it is 4.55. Consider WCSVQICEKYLPGYYSEKLEAIQL [L3S], for which the protein stability index is 1.88.

In the case of WCDVQICEKYLPGYYSEKLEAIQL [L3D], the protein stability index is 1.29. Take WCNVQICEKYLPGYYSEKLEAIQL [L3N]: the protein stability index is 1.88. Regarding WCCVQICEKYLPGYYSEKLEAIQL [L3C], the protein stability index came to 3.05. Consider WCGVQICEKYLPGYYSEKLEAIQL [L3G], for which the protein stability index worked out at 3.3. For the variant WCMVQICEKYLPGYYSEKLEAIQL [L3M], the protein stability index came out at 2.45. For WCHVQICEKYLPGYYSEKLEAIQL [L3H], the protein stability index stood at 1.87.

In the case of WCWVQICEKYLPGYYSEKLEAIQL [L3W], the protein stability index is 1.02. As for WCPVQICEKYLPGYYSEKLEAIQL [L3P], the protein stability index was 1.5. Consider WCLVQICEKYLPGYYSEKLEEIQL [A21E], for which the protein stability index came to 3.38. WCLVQICEKYLPGYYSEKLEQIQL [A21Q]: the protein stability index is 2.37. The result for WCLVQICEKYLPGYYSEKLERIQL [A21R] reads 2.99; that for WCLVQICEKYLPGYYSEKLEGIQL [A21G], 2.02.

For WCLVQICEKYLPGYYSEKLEMIQL [A21M], the protein stability index was found to be 3.73. Turning to WCLVQICEKYLPGYYSEKLECIQL [A21C], the protein stability index was determined as 4.65. Consider WCLVQICEKYLPGYYSEKLETIQL [A21T], for which the protein stability index came to 2.15.

With WCLVQICEKYLPGYYSEKLELIQL [A21L], the protein stability index turned out to be 4.51.

As for WCLVQICEKYLPGYYSEKLEPIQL [A21P], the protein stability index is 3.77.

Take WCLVQICEKYLPGYYSEKLEHIQL [A21H]: the protein stability index was determined as 3.56. The result for WCLVQICYKYLPGYYSEKLEAIQL [E8Y] reads 3.51; that for WCLVQICMKYLPGYYSEKLEAIQL [E8M], 2.81. Take WCLVQICKKYLPGYYSEKLEAIQL [E8K]: the protein stability index worked out at 4.48.

For WCLVQICQKYLPGYYSEKLEAIQL [E8Q], the protein stability index stood at 4.87. The figure for WCLVQICLKYLPGYYSEKLEAIQL [E8L] is 4.41; for WCLVQICAKYLPGYYSEKLEAIQL [E8A] it is 2.95; for WCLVQICTKYLPGYYSEKLEAIQL [E8T] it is 2.34. For the variant WCLVQICCKYLPGYYSEKLEAIQL [E8C], the protein stability index worked out at 2.85. On to WCLVQCCEKYLPGYYSEKLEAIQL [I6C], for which the protein stability index turned out to be 3.08.

Consider WCLVQPCEKYLPGYYSEKLEAIQL [I6P], for which the protein stability index is 2.45. Regarding WCLVQGCEKYLPGYYSEKLEAIQL [I6G], the protein stability index amounted to 1.73.

Consider WCLVQKCEKYLPGYYSEKLEAIQL [I6K], for which the protein stability index turned out to be 2.41.

For WCLVQICEKYLWGYYSEKLEAIQL [P12W], the protein stability index amounted to 2.32.

Regarding WCLVQICEKYLMGYYSEKLEAIQL [P12M], the protein stability index came to 1.77. Take WCLVQICEKYLNGYYSEKLEAIQL [P12N]: the protein stability index is 4.27.

In the case of WCLVQICEKYLTGYYSEKLEAIQL [P12T], the protein stability index stood at 1.62. For WCLVQICEKYLIGYYSEKLEAIQL [P12I], the protein stability index worked out at 2.32. For WCLVQICEKYLKGYYSEKLEAIQL [P12K], the protein stability index came out at 2.12.

Take WCLVQICEKYLYGYYSEKLEAIQL [P12Y]: the protein stability index stood at 2.66. WCLVQICEKYLSGYYSEKLEAIQL [P12S]: the protein stability index amounted to 3.84. For WCLVQICEKYPPGYYSEKLEAIQL [L11P], the protein stability index came to 3.62.

With WCLVQICEKYCPGYYSEKLEAIQL [L11C], the protein stability index came out at 2.72. The result for WCLVQICEKYEPGYYSEKLEAIQL [L11E] reads 2.65.

Consider WCLVQICEKYSPGYYSEKLEAIQL [L11S], for which the protein stability index was found to be 2.68. Take WCLVQICEKYIPGYYSEKLEAIQL [L11I]: the protein stability index was found to be 3.03. In the case of WCLVQICEKYDPGYYSEKLEAIQL [L11D], the protein stability index turned out to be 2.91. As for WCLVQITEKYLPGYYSEKLEAIQL [C7T], the protein stability index stood at 3.5. In the case of WCLVQIREKYLPGYYSEKLEAIQL [C7R], the protein stability index was 3.73. For WCLVQINEKYLPGYYSEKLEAIQL [C7N], the protein stability index was 3.08. In the case of WCLVQILEKYLPGYYSEKLEAIQL [C7L], the protein stability index worked out at 3.68. For the variant WCLVQIMEKYLPGYYSEKLEAIQL [C7M], the protein stability index came out at 2.57. The result for WCLVQIDEKYLPGYYSEKLEAIQL [C7D] reads 2.31; that for WCLVQIKEKYLPGYYSEKLEAIQL [C7K], 2.9.
